Assay results taken from patent US20210134388A1, “Hyperstable Constrained Peptides and Their Design” (University of Washington, priority 2016, published 2021).
Positions of bridges follow the written chain, without caps; N, C: chain ends. Non-standard residues stand in square brackets, D forms with d. No end group written: not given here.

What was measured:
Assay type in all cases: physicochemical
[1] = Thermal denaturation monitored by CD spectroscopy; details: CD wavelength scans, heated to 95° C. and cooled back; 10 mM sodium phosphate buffer (pH 7.0)
Procedure: (§1) The stability of the designs to thermal and chemical denaturation was assessed by CD spectroscopy. Samples were heated to 95° C. (FIG. 2c), or incubated with increasing concentrations of guanidinium hydrochloride (GdnHCl) (FIG. 2d). The contribution of disulfide bonds to protein folding was assessed by incubating samples with a ˜100-fold molar excess of the reductant tris (2-carboxyethyl) phosphine (TCEP).
(§2) Circular dichroism (CD) wavelength and temperature scans were recorded on AVIV model 420 or Jasco J-1500 CD spectrometer. For thermal denaturation, peptides samples were prepared at 0.07-0.2 mg/ml final concentration in 10 mM sodium phosphate buffer (pH 7.0). Wavelength scans from 195 nm to 260 nm were recorded at 25° C., 55° C., 95° C., and again after cooling back to 25° C. For chemical denaturation experiments, samples for each peptide were prepared in the presence of 0 M to 6 M GdnHCl concentrations. The concentration of GdnHCl was measured by refractometry. Peptide samples were also prepared in the presence of 2.5 mM TCEP (TCEP was pre-equilibrated to pH 7.0 prior to addition), and incubated for 3 hours. Peptide concentrations were the same across all samples. Wavelength scans from 190 nm to 260 nm were recorded for each sample in 0.1 cm cuvette.

[2] = Chemical denaturation with guanidinium hydrochloride (GdnHCl) monitored by CD spectroscopy; details: 0 M to 6 M GdnHCl
Procedure: as §1, §2

[3] = Reduction of disulfide bonds with TCEP, folding monitored by CD spectroscopy; details: 2.5 mM TCEP (~100-fold molar excess), incubated for 3 hours
Procedure: as §1, §2

[4] = NMR secondary 1Hα chemical shifts at a range of temperatures
Procedure: FIG. 19: Secondary ^1Hα chemical shifts at a range of temperatures for peptide NC_cHLHR_D1 (SEQ ID NO:09). NMR spectra were collected at 25° C. (black bars), 55° C. (blue bars), 75° C. (red bars), and again after cooling to 25° C. (green bars).
Each non-canonical peptide (1 mg) was dissolved in […] of 10% D20/90% H2O or 100% D2O (˜pH 4). NMR spectra were recorded at 298K on a Bruker Avance-600 spectrometer. Two-dimensional NMR experiments included TOCSY with an […] MLEV-17 spin lock, NOESY (200 ms mixing time), ECOSY, as well as natural-abundance ^13C and ^15N HSQC. Solvent suppression was achieved using excitation sculpting. Spectra were processed using Topspin 2.1 then analyzed using CcpNmr Analysis. Chemical shifts were referenced to internal 2,2-dimethyl-2-silapentane-5-sulfonate (DSS).

Substance	stability to thermal denaturation (CD spectra) [1]	stability to chemical denaturation (CD spectra) [2]	folding / secondary structure in the presence of the reductant TCEP (CD spectra) [3]	change of secondary 1Hα chemical shifts (secondary structure) on heating ([4]; NMR spectra at 25° C., 55° C., 75° C.)	aggregation or irreversible conformation change on heating (secondary chemical shifts after cooling) ([4]; NMR, again after cooling to 25° C.)
QCYTFRSECTNKEFTVCRPNPEEVEKEARRTKEEECRK [gEEH_04]	less stable than the others to thermal denaturation				
NPEDCRQDPEANKSPEECKKLK (cyclo(NPEDCRQDPEANKSPEECKKLK); disulfide 5-18; not fully specified (some residues)) [NC_cHHH_D1]		some loss of secondary structure in 6M GdnHCl	lost secondary structure		
SQETRKKCTEMKKKFKNCEVRCDESNHCVEVRCSDTKYTLC [gHEEE_02]	resistant to both thermal and chemical denaturation	resistant to both thermal and chemical denaturation			
PCEDLKERLKKLGMSEECRQRLEKMCKEGTSEDAERMARNCES [gHHH_06]	partially unfolds upon heating to 95 °C but returns to the folded state upon cooling				
PCECDVNGETYTVSSSEECERLCRKLGVTNCRVHCG [gEEHE_02]	impervious to both thermal and chemical denaturation	impervious to both thermal and chemical denaturation	remained partially folded in the presence of TCEP		
HDPEKRKECEKKYTDPKKREECKRKA (cyclo(HDPEKRKECEKKYTDPKKREECKRKA); disulfide 9-22; not fully specified (some residues)) [NC_cHH_D1]		do not chemically denature	lost secondary structure		
TCEIRVTDTHCKVHCGTQEYKVPPGRTLKVGNCRFTYHDTTCTVECR [gEEEEEE_02]	resistant to both thermal and chemical denaturation	resistant to both thermal and chemical denaturation			
CQTWRrVSPEECRKYKEEYnCVRCTE (CQTWR[dR]VSPEECRKYKEEY[dN]CVRCTE; disulfide 1-21, 12-24) [NC_EHE_D1]	only a small decrease				
NDKCKELKKRYPNCEVRCDpPRYEVHC (NDKCKELKKRYPNCEVRCD[dP]PRYEVHC; disulfide 14-27, 4-18; not fully specified; printed as NDKCKELKKRYPNCEVRCDpPRYEVHC) [NC_HEE_D1]	no loss in secondary structure	does not denature in 6 M GdnHCl			
NPELQRKCKELdTRpeaerkcreeSD (cyclo(NPELQRKCKEL[dD]TR[dP][dE][dA][dE][dR][dK][dC][dR][dE][dE]SD); disulfide 8-21 (inferred)) [NC_cHLHR_D1]	no change was observable on heating to 95 °C			no significant loss of secondary structure resulting from heating	not aggregation-prone or otherwise prone to irreversible conformation changes on heating
CKQRRRYRGSEEECRKYAEELSRRTGCEVEVECET [gEHE_06]	thermally and chemically stable	thermally and chemically stable	remained folded in the presence of TCEP		
AEDCERIRKELEKNPNDEIKKKLEKCQA [gHH_44]	resistant to thermal denaturation				
PVTWCVRIpPTVRCTVRp (cyclo(PVTWCVRI[dP]PTVRCTVR[dP]); disulfide 5-14 (inferred)) [NC_cEE_D1]		do not chemically denature	not changed by reduction of the central disulfide bond		
CRCHITSSCVRVEGDNGEEYRYCSSDEEDLRRFCKEMQKQC [gEEEH_04]	resistant to both thermal and chemical denaturation	resistant to both thermal and chemical denaturation			
EERRYKRCGQDEERVRRECKERGERQNCQYQIRKEGNCYVCEIRC [gEHEE_06]	thermostable	completely resistant to chemical denaturation			
